Experimental findings from IntAct's records for PubMed 21620138 are described below.

In this experiment the target is hif1a_human HIF1A (UniProt Q16665).
Chain of hif1a_human HIF1A (Q16665 whole entry, looked up): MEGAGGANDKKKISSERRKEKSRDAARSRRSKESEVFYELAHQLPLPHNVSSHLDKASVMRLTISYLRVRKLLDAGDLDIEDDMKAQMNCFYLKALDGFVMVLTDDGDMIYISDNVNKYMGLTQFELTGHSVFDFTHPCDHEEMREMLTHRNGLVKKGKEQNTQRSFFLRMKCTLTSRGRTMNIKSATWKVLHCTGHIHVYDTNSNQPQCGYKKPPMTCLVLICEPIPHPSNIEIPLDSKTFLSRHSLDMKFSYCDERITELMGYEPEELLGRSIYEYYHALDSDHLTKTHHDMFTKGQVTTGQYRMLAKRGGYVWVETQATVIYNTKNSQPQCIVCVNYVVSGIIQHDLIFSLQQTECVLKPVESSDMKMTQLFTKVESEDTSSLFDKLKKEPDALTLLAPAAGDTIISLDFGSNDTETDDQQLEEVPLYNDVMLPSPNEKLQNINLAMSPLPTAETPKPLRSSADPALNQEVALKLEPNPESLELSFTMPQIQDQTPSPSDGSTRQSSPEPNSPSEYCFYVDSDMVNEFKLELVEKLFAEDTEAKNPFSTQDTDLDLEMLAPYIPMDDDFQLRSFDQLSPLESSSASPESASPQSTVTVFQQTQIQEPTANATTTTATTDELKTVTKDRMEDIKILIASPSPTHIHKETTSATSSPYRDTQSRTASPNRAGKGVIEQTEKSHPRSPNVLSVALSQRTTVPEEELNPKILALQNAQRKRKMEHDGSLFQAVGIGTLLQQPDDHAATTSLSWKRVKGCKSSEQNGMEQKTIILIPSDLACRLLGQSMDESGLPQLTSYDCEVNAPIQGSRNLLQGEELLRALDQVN

Chain of Pyruvate kinase PKM (Homo sapiens), P14618-1 P403A;P408A (P14618 whole entry P403A/P408A): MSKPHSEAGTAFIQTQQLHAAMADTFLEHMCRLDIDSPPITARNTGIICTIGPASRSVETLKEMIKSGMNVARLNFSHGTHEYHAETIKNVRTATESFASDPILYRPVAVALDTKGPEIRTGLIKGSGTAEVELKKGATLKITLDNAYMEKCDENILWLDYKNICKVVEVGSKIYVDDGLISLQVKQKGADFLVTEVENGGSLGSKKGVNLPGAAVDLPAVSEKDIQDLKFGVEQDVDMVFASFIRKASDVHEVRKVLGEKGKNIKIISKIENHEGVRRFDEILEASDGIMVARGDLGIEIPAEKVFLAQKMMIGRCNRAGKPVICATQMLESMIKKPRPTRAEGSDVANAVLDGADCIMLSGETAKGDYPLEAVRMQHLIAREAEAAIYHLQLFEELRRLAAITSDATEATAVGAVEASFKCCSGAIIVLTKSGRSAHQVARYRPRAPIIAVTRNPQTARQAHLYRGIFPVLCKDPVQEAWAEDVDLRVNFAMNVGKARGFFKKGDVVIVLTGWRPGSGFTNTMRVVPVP

Regarding “Pyruvate kinase PKM (Homo sapiens), P14618-1 P403A;P408A”, the “effect of a mutation on the interaction” value was “decreasing interaction strength”.
